Data from the DeepSol protein solubility set.

Test: soluble on expression in E. coli; label from the status in PepcDB or PDB records

Soluble on expression in E. coli, not soluble:
MLIFRTSPMSRREKSLPIEPKYTKPQANGSSFPPIFTLEGSTPCKKTARKLIDPVVNSVDSLCYLARKIVKMQEEKKRQKSNSFLIDYLVGDNFITEFREQPAQASPAVDVEDPMVSLVLGCPFGAIGQERRMSQDFPFQRRSFDMVSNRTSTSESSSCSSTDNTYKNAGKFLSLQEYLEQNNLLPPSTMPFGENSGFHGYNPQMNVHNNSTRNGNVENREQRNNSTSPPRGNPPHPLCCCFCFGTASEFARLHTLPAPRKDDRGPWSDHCSKKRGRVVCPKLRSMVCGICGATGDNAHTTKHHLEAFGDD, MLISIESKEHYRILCIDGGSTDQTIPMIERLQRELKHISLIQLQNASIATCINKGLMDIKMTDPHDSDAFMVINPTSIVLPGKLDRLTAAFKNNDNIDMVIGQRAYNYHGEWKLKSADEFIKDNRIVTLTEQPDLLSMMSFDGKLFSAKFAELQCDETLANTYNHAILVKAMQKATDIHLVSQMIVGDNDIDTHATSNDEDFNRYIIEIMKIRQRVMEMLLLPEQRLLYSDMVDRILFNNSLKYYMNEHPAVTHTTIQLVKDYIMSMQHSDYVSQNMFDIINTVEFIGENWDREIYELWRQTLIQVGINRPTYKKFLIQLKGRKFAHRTKSMLKRLEHHHHHH, MLKDQDRIFTNLYGLKDKSLKGVMARGHWDGTKQIIEKGRDWIINEMKASGLRGRGGAGFPTGLKWSFMPKENDGRPHYLVVNADESEPGTCKDREILRNDPHTLIEGCVIAGFAMGAHTAYIYVRGEYMREREALQAAIDECYDAGLLGKNNKNGWDYDIYVHHGAGAYICGEETALLESLEGKKGQPRLKPPFPANMGLYGCPTTVNNVESIAVAPTILRRGASWFSSIGRPNNVGTKLFMVSGHVERPCTFEDALGLSFRELIEHHCGGIRGGWDNLLGVIPGGASCPIVRGEDMKDAIMDFDGMREVKSSFGTGGMIVMDKSTDVIKAIARIAAFFKHESCGQCTPCREGTGWMWRVLERMVKGNAQKREIDMLFEVTKQIEGHTICALGDAAAWPVQALIRNFRPEIEKRIDQYTYRAMDDGAVLEAAEAAALEHHHHHH, MLKKGNEMKAVIVYASVHHGNTKKIEEAMASVISADVIDVTRKIKPDLSGYDVIGFVSGVYFHTFHEGIKKCIEENMSSKGQKVFLVATCGLGYRDYTKGMKDTLAKKDVLCMGSFQCRGWDTYGIFGKIGGIAKKHPNDRDLKEAQEFVLKTVCKTNNLEHHHHHH, MLKSASSLVRSFIRPQTFRLCSSSSTTQGSPSVSSDDEPVILENNPYTKEPRKSFLCSTGVELDYKNSRLLQQFVSTFSGRVYDRHITGLCDENKKKLIEAIAKSRRAGFMPIFVKDPKYTRDPKLFDPLKPIRPHSFA

Soluble on expression in E. coli, soluble:
MLITVYCVRRDLSEVTFSLQVSPDFELRNFKVLCEAESRVPVEEIQIIHMERLLIEDHCSLGSYGLKDGDIVVLLQKDNVGPRAPGRAPNQPRVDFSGIAVPGTSSSRPQHPGQQQQRTPAAQRSQGLASGEKVAGLQGLGGPALIRSMLLSNPHDLSLLKERNPPLAEALLSGSLETFSQVLMEQQREKALREQERLRLYTADPLDREAQAKIEEEIRQQNIEENMNIAIEEAPESFEQVTMLYINCKVNGHPLKAFVDSGAQMTIMSQACAERCNIMRLVDRRWAGVAKGVGTQRIIGRVHLAQIQIEGDFLQCSFSILEDQPMDMLLGLDMLRRHQCSIDLKKNVLVIGTTGTQTYFLPEGELPLCSRMVSGQDESSDKEITHSVMDSGRKEH, MLKIIRAGMYTTVQDGGRHGFRQSGISHCGALDMPALRIANLLVGNDANAPALEITLGQLTVEFETDGWFALTGAGCEARLDDNAVWTGWRLPMKAGQRLTLKRPQHGMRSYLAVAGGIDVPPVMGSCSTDLKVGIGGLEGRLLKDGDRLPIGKSKRDSMEAQGVKQLLWGNRIRALPGPEYHEFDRASQDAFWRSPWQLSSQSNRMGYRLQGQILKRTTDRELLSHGLLPGVVQVPHNGQPIVLMNDAQTTGGYPRIACIIEADMYHLAQIPLGQPIHFVQCSLEEALKARQDQQRYFEQLAWRLHNEN, MLKRCNAKYSCEIIKEKRADGDDRMATIDLQKKSVKIVLEKKQLTKVTARVGLVLDITGSMRPLYKNGTVQNVVERILAVADQFDDNGLLDVWVYDNEFSRLKPVSEKDFSGYVDREILNNDRLHKFGRNDEPPVMKDVLRKYVTEEPSSYPAFIVFINDGGCKKSIKPIIEASSDKPVFWQFVGIGNGNFDFLNKLDTLEGRVIDNTNFLHIEEIDRISDDELYDALLAEFPFWLKEAKEKGIVREQEPPAEKPKKKGFFSRLFSKLEHHHHHH
